Assay results published in patent US20250052758A1 (PIERRE FABRE MEDICAMENT, published 2025).

Biological target: T1, P-selectin glycoprotein ligand 1 (PSGL-1) expressed by cells (naive human T cells, HL-60 cells, PBMCs) (human, UniProt Q14242 42-412)
T1 construct: also called SELPLG; CD162
T1 sequence: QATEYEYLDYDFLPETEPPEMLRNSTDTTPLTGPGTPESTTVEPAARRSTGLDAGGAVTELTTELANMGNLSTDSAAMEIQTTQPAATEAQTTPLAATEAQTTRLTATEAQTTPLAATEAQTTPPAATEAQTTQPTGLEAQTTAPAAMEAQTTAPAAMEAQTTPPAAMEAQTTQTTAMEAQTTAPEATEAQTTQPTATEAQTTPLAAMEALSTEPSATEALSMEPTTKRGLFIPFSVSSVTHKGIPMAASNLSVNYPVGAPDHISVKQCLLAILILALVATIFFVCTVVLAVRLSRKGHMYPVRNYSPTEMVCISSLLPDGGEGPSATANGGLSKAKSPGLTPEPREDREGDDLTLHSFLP
Test: CAPTIREC/TRICEPS ligand-receptor capture on naive human T cells, LC-MS/MS; enrichment against the anti-CD28 antibody control
Protocol: An overview of the […]™ procedure is outlined in FIG. 1. Briefly, the VISTA-Fc fusion protein and the anti-CD28 antibody were separately coupled with TRICEPS™ Naïve human T cells were isolated from commercially available primary human T cells. The surface glycoproteins of the naïve T cells were selectively oxidized. Ligand binding and receptor coupling to the cell surface of the oxidized naïve T cells was performed. The reacted T cells were then lysed and the resulting lysate was affinity purified for the ligand-receptor protein complexes. The purified proteins where then cleaved by trypsin digestion, thereby releasing receptor peptides. The resulting receptor peptides were analyzed by liquid chromatography-tandem mass spectrometry (LC-MS/MS). […]
The resulting receptor peptides were analyzed by LC-MS/MS on a Thermo LTQ Orbitrap XL spectrometer fitted with an electrospray ion source. The samples were measured in data dependent acquisition mode in a 120 min gradient using a 10 cm C18 packed column. Six individual samples in the […]™ dataset were analyzed with a statistical ANOVA model. […]
Peptide identifications were filtered to an FDR of <=1% and quantified using an MS1-based label-free approach. For the MS1 quantification, the nonlinear DYNAMICS Progenesis QI for proteomics software was used, set to consider all unique peptides. […]

Log2 FC: 2.33 log2 fold change
B1: VISTA-Fc fusion protein (Fc fusion)
chain: FKVATPYSLYVCPEGQNVTLTCRLLGPVDKGHDVTFYKTWYRSSRGEVQTCSERRPIRNLTFQDLHLHHGGHQAANTSHDLAQRHGLESASDHHGNFSITMRNLTLLDSGLYCCLVVEIRHHHSEHRVHGAMELQVQTGKDAPSNCVVYPSSSQDSENIRSVECPPCPAPPVAGPSVFLFPPKPKDTLMISRTPEVTCVVVDVSHEDPEVKFNWYVDGVEVHNAKTKPREEQYNSTYRVVSVLTVLHQDWLNGKEYKCKVSNKGLPSSIEKTISKAKGQPREPQVYTLPPSREEMTKNQVSLTCLVKGFYPSDIAVEWESNGQPENNYKTTPPVLDSDGSFFLYSKLTVDKSRWQQGNVFSCSVMHEALHNHYTQKSLSLSPGK
